# B1: TRIM35 (parent)
# chain: DKELLCCSCQADPRHQGHRVQPVK
# Variants of: B1
# Test: protein stability index of a GFP-peptide fusion (GPS, HEK-293T) (PSI 1-6); higher = more stable
# Conditions: c terminus: a fixed tail appended
# 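Also: lentivirally expressed fusions sorted by FACS into six bins by GFP to DsRed ratio, PSI derived from sequencing read proportions per bin multiplied by bin number.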
row,Variant,protein stability index
1,DKELLCCSCQADDRHQGHRVQPVK [P13D],3.44
2,DKELLCCSCQADGRHQGHRVQPVK [P13G],3
3,DKELLCCSCQADNRHQGHRVQPVK [P13N],3.79
4,DKELLCCSCQADMRHQGHRVQPVK [P13M],2.71
5,DKELLCCSCQADERHQGHRVQPVK [P13E],3.44
6,DKELLCCSCQADHRHQGHRVQPVK [P13H],3.64
7,DKELLCCSCQADCRHQGHRVQPVK [P13C],4.78
8,DKELLCCSCQADWRHQGHRVQPVK [P13W],2.31
9,DKELLCCSCQADLRHQGHRVQPVK [P13L],3.76
10,DKELLCCSCQADQRHQGHRVQPVK [P13Q],3.88
11,DKELLCCSCQADIRHQGHRVQPVK [P13I],3.69
12,DKELLCCSCQADTRHQGHRVQPVK [P13T],3.34
13,DKELLCCSCQADFRHQGHRVQPVK [P13F],2.31
14,DKELLCCSCQADYRHQGHRVQPVK [P13Y],2.79
15,DKELLCCSCQADARHQGHRVQPVK [P13A],3.04
16,DKELLCCSCQADKRHQGHRVQPVK [P13K],3.15
17,DKELLCCSCQADSRHQGHRVQPVK [P13S],1.97
18,DKELLCCSCQADRRHQGHRVQPVK [P13R],3.41
19,DKELLCCSCQADVRHQGHRVQPVK [P13V],2.8
20,DKELLCNSCQADPRHQGHRVQPVK [C7N],4.1
21,DKELLCPSCQADPRHQGHRVQPVK [C7P],4.03
22,DKELLCQSCQADPRHQGHRVQPVK [C7Q],4.5
23,DKELLCGSCQADPRHQGHRVQPVK [C7G],4.23
24,DKELLCWSCQADPRHQGHRVQPVK [C7W],3.9

row,Variant,protein stability index
1,DKELLCLSCQADPRHQGHRVQPVK [C7L],3.66
2,DKELLCTSCQADPRHQGHRVQPVK [C7T],4.18
3,DKELLCESCQADPRHQGHRVQPVK [C7E],4.44
4,DKELLCDSCQADPRHQGHRVQPVK [C7D],4.67
5,DKELLCASCQADPRHQGHRVQPVK [C7A],4.12
6,DKELLCFSCQADPRHQGHRVQPVK [C7F],3.38
7,DKELLCSSCQADPRHQGHRVQPVK [C7S],4.06
8,DKELLCMSCQADPRHQGHRVQPVK [C7M],3.62
9,DKELLCRSCQADPRHQGHRVQPVK [C7R],3.76
10,DKELLCHSCQADPRHQGHRVQPVK [C7H],4.03
11,DKELLCYSCQADPRHQGHRVQPVK [C7Y],3.83
12,DKELLCKSCQADPRHQGHRVQPVK [C7K],3.88
13,DKELLCISCQADPRHQGHRVQPVK [C7I],3.29
14,DKELLCVSCQADPRHQGHRVQPVK [C7V],3.87
15,DKETLCCSCQADPRHQGHRVQPVK [L4T],4.13
16,DKEWLCCSCQADPRHQGHRVQPVK [L4W],2.68
17,DKENLCCSCQADPRHQGHRVQPVK [L4N],2.58
18,DKEYLCCSCQADPRHQGHRVQPVK [L4Y],3.8
19,DKEVLCCSCQADPRHQGHRVQPVK [L4V],4.33
20,DKERLCCSCQADPRHQGHRVQPVK [L4R],3.7
21,DKESLCCSCQADPRHQGHRVQPVK [L4S],3.8
22,DKEPLCCSCQADPRHQGHRVQPVK [L4P],3.85
23,DKEQLCCSCQADPRHQGHRVQPVK [L4Q],4.36
24,DKELLCCQCQADPRHQGHRVQPVK [S8Q],3.05

row,Variant,protein stability index
1,DKELLCCDCQADPRHQGHRVQPVK [S8D],4.28
2,DKELLCCCCQADPRHQGHRVQPVK [S8C],4.16
3,DKELLCCMCQADPRHQGHRVQPVK [S8M],2.87
4,DKELLCCVCQADPRHQGHRVQPVK [S8V],3.75
5,DKELLCCKCQADPRHQGHRVQPVK [S8K],3.78
6,DKELLCCACQADPRHQGHRVQPVK [S8A],3.31
7,DKELLCCNCQADPRHQGHRVQPVK [S8N],3.62
8,DKELLCCWCQADPRHQGHRVQPVK [S8W],2.5
9,DKELLCCPCQADPRHQGHRVQPVK [S8P],3.59
10,DKELLCCICQADPRHQGHRVQPVK [S8I],2.64
11,DKELLCCFCQADPRHQGHRVQPVK [S8F],2.24
12,DKELLCCYCQADPRHQGHRVQPVK [S8Y],2.97
13,DKELLCCGCQADPRHQGHRVQPVK [S8G],4.14
14,DKELLCCLCQADPRHQGHRVQPVK [S8L],2.98
15,DKELLCCECQADPRHQGHRVQPVK [S8E],4.61
16,DKELLCCHCQADPRHQGHRVQPVK [S8H],2.92
17,DKELLCCSPQADPRHQGHRVQPVK [C9P],4.89
18,DKELLCCSTQADPRHQGHRVQPVK [C9T],4.28
19,DKELLCCSKQADPRHQGHRVQPVK [C9K],4.64
20,DKELLCCSFQADPRHQGHRVQPVK [C9F],3.38
21,DKELLCCSRQADPRHQGHRVQPVK [C9R],4.42
22,DKELLCCSDQADPRHQGHRVQPVK [C9D],5.29
23,DKELLCCSNQADPRHQGHRVQPVK [C9N],4.6
24,DKELLCCSAQADPRHQGHRVQPVK [C9A],3.85

row,Variant,protein stability index
1,DKELLCCSIQADPRHQGHRVQPVK [C9I],4.14
2,DKELLCCSVQADPRHQGHRVQPVK [C9V],3.27
3,DKELLCCSGQADPRHQGHRVQPVK [C9G],4.1
4,DKELLCCSEQADPRHQGHRVQPVK [C9E],4.87
5,DKELLCCSLQADPRHQGHRVQPVK [C9L],3.09
6,DKELLCCSMQADPRHQGHRVQPVK [C9M],4.03
7,DKELLCCSSQADPRHQGHRVQPVK [C9S],4.47
8,DKELLCCSYQADPRHQGHRVQPVK [C9Y],4.52
9,DKELLCCSQQADPRHQGHRVQPVK [C9Q],4.65
10,DKELLCCSHQADPRHQGHRVQPVK [C9H],4.1
11,DKELFCCSCQADPRHQGHRVQPVK [L5F],3.55
12,DKELHCCSCQADPRHQGHRVQPVK [L5H],3.91
13,DKELECCSCQADPRHQGHRVQPVK [L5E],4.08
14,DKELCCCSCQADPRHQGHRVQPVK [L5C],3.88
15,DKELPCCSCQADPRHQGHRVQPVK [L5P],4.36
16,DKELQCCSCQADPRHQGHRVQPVK [L5Q],4.36
17,DKELNCCSCQADPRHQGHRVQPVK [L5N],2.66
18,DKELACCSCQADPRHQGHRVQPVK [L5A],3.65
19,DKELTCCSCQADPRHQGHRVQPVK [L5T],4.29
20,DKELDCCSCQADPRHQGHRVQPVK [L5D],4.43
21,DKELRCCSCQADPRHQGHRVQPVK [L5R],3.32
22,DKELMCCSCQADPRHQGHRVQPVK [L5M],3.11

# Source: the supplement of paper PMC10567573
